Target: MMP-14 catalytic domain (Homo sapiens, UniProt P50281)
Assay: enzyme inhibition assay

Ki: 0.18 nM
B1: N-TIMP2D-Cys-PEG N-terminal domain (protein)
chain: CSCSPVHPQQAFCNADVVIRAKAVSEKEVDSGNDIYGNPIKRIQYEIKQIKMFKGPEKDIEFIYTAPSSAVCGVSLDVGGKKEYLIAGKAEGDGKMHITLCDFIVPWDTLSTTQKKSLNHRYQMGC
modifications: PEGylated

— PMC7617879 (2022)
